The results in this text go back to patent US20200231645A1.

Experiment [1] deals with human GLP-1 receptor (human) (UniProt P43220). In words: cell-based or functional assay.
For experiment [2], the target named is PCSK9 (UniProt Q8NBP7). The experiment in a line: cell-based or functional assay.

Chain of human GLP-1 receptor (human) (P43220 24-463): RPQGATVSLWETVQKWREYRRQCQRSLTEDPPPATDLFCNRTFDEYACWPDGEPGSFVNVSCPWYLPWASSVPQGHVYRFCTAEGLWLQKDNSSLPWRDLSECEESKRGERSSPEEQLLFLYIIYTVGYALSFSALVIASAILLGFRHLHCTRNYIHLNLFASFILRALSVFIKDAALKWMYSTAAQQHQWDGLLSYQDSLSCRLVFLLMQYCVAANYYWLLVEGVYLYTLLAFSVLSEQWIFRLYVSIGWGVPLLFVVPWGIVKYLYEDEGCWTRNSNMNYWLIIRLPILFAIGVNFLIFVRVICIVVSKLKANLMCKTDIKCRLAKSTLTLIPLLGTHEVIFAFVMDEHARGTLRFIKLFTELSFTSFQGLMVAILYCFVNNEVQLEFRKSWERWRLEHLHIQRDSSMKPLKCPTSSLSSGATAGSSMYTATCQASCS

With Semaglutide (peptide), in experiment [1], the EC50 (pM) 0% HSA was 7.3 pM and the EC50 (pM) 1% HSA was determined as 210 pM.

With Alirocumab (antibody), in experiment [2], the LDL-R expression in mouse liver, Percentage of baseline (%), dose of inhibitor 22 nmol/kg was 157%.
